Source: paper doi:10.1101/464495

Assays:
[1] = target: Maltose binding protein (MBP) (UniProt P0AEX9 27-396); assay: size-exclusion chromatography
[2] = target: T1, MBP-IE86 full length (human cytomegalovirus, UniProt P19893 1-580); assay: size-exclusion chromatography
T1 sequence: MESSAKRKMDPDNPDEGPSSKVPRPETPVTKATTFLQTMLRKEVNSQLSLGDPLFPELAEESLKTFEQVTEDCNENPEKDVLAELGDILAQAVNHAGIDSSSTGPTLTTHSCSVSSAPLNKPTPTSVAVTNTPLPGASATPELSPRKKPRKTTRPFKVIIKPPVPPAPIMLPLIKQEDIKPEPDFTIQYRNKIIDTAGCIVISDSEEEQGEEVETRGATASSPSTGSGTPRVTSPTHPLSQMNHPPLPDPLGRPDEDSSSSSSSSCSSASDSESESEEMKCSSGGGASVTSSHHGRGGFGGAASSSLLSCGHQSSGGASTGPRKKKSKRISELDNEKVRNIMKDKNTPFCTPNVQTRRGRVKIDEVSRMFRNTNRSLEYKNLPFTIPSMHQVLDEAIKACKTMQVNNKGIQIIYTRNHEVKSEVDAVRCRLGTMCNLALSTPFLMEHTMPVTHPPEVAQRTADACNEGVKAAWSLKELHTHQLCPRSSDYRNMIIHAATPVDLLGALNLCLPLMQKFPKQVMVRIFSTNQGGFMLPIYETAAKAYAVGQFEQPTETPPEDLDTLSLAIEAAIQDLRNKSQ

B1: FDC (28bp, phosphorothioate) (dsDNA)
DNA 1: GACAGATCGTTTAGTGAACCGTACACGA
DNA 2: TCGTGTACGGTTCACTAAACGATCTGTC
modifications: four phosphorothioate bonds per strand (* in table)
B1: no binding [1]; binds [2].
